These results are taken from patent publication US20060025342A1 (OSTEOTROPHIN, published 2006).

Read-outs that look alike come from different tables or passages of the source. Non-standard residues stand in square brackets, D forms with d. No end group written: not given here. Nle = CCCC[C@H](N)C(=O)O Bounds are passed on as bounds.

The target in test [1] is T1, human PTH/PTHrP receptor (PTH1 receptor) (human, UniProt Q03431 27-593).
T1 sequence (looked up): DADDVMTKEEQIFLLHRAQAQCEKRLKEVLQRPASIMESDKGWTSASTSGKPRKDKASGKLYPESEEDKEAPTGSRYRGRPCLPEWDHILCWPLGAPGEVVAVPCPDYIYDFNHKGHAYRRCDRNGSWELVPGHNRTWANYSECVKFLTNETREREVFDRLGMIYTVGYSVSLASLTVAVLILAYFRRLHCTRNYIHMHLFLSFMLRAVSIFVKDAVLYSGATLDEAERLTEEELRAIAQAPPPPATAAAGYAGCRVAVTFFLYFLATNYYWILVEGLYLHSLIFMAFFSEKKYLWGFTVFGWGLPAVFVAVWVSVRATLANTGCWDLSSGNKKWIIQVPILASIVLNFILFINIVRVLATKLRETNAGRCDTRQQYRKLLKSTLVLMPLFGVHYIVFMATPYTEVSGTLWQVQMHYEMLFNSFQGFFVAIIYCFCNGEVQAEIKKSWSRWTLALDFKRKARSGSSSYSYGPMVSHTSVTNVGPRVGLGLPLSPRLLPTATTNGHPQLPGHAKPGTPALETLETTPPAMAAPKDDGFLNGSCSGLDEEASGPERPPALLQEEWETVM
Description: cell-based or functional assay.

Test [2] concerns the target T1, human PTH/PTHrP receptor (PTH1 receptor). Description: competition of 125I-(Tyr36)hPTHrP-(1-36)NH2 binding, SaOS-2 membranes, 30 C, 60 min.
Test [3] has the same target. The test is described as follows: competition of 125I-(Tyr36)hPTHrP-(1-36)NH2 binding, human renal cortical membranes, 30 C, 30 min.
In test [4] the target is T2, canine renal PTH/PTHrP receptor (canine, UniProt Q9TU31 29-595).
T2 construct: whole, on cells; Native receptor in renal cortical membranes of adult mongrel dogs, not intact cells; also called canine renal receptors; receptor in canine renal cortical membranes (CRCM)
T2 sequence (looked up): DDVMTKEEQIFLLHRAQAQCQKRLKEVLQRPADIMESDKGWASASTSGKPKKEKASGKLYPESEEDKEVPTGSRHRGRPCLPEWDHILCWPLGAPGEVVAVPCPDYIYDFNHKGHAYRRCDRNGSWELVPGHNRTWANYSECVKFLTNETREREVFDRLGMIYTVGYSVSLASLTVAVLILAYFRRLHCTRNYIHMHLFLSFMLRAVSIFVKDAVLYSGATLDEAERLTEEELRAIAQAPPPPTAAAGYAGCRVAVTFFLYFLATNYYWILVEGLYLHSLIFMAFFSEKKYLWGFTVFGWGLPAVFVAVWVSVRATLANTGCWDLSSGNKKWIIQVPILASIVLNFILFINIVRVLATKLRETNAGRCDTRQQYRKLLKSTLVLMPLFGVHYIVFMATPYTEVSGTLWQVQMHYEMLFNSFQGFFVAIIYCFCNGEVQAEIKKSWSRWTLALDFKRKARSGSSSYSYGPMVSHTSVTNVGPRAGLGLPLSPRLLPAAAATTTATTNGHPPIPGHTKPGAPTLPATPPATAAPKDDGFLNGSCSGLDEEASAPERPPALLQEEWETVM
Description: competition of 125I-[Tyr36]PTHrP-(1-36)amide binding, canine renal cortical membranes, 20 C. Here is the method: (§1) Binding assays were conducted in siliconized 12×75 mm borosilicate glass test tubes at 20° C. in a final volume of 0.2 ml. […] Binding was initiated by adding 50 μg membrane. At the end of the incubation periods described, 50 μl triplicate aliquots were layered onto 300 μl of iced binding buffer containing 1.0% BSA in 500 μl polypropylene tubes. The tubes were centrifuged at approximately 16,000×g for three min at 4° C. in a microcentrifuge. The supernatant was aspirated and the tip of the tube containing the membrane-associated radioligand was cut off. Radioactivity in both the pellet and supernatant was measured.
(§2) Dissociation constants (Kd) were determined by Scatchard analysis of the data obtained from competitive binding experiments using radioligand and increasing concentrations of unlabeled ligand. […] Statistical differences were assessed by paired Student's t test. […] Significance was determined using a partial F-test.

Test [5] deals with T1, human PTH/PTHrP receptor (PTH1 receptor). Description: cell-based or functional assay. The source holds these as a separate data set.
Test [6] has the same target. Description: cell-based or functional assay. The source holds these as a separate data set.
Test [7] shares this target. The test is described as follows: competition binding, human RCM and SaOS-2 membranes.
Description: (§3) Human RCM were added to a final concentration of 90 μg/ml. […] The incubation time of 30 min was used for subsequent equilibrium binding competition studies.
(§4) The binding assay for SaOS-2 membranes was conducted as for human RCM.
IC₅₀ values for competitive binding experiments and EC₅₀ values for adenylate cyclase dose response curves were determined from the concentration of peptide yielding 50% of the maximal response. Statistical differences were assessed by paired and unpaired two-tailed Student's t test.
Test [8] shares this target. Description: competition of 125I-(Tyr36)hPTHrP-(1-36)NH2 binding, intact SaOS-2 cells, 15 C, 150 min.
Description: (§5) Binding studies were conducted at 15° C. in the presence of chymostatin (100 μg/ml) and bacitracin (200 μg/ml). […] The incubation time of 150 min was therefore used for competitive binding studies.
For test [9] the target is unchanged. Description: competition of 125I-(Tyr36)hPTHrP-(1-36)NH2 binding, human renal cortical membranes, 30 C, 30 min.
For test [10] the target is unchanged. The description is as above. The source holds these as a separate data set.
The target of test [11] is T2, canine renal PTH/PTHrP receptor. The test is described as follows: cell-based or functional assay.
For test [12] the target is unchanged. Description: competition of 125I-[Tyr36]PTHrP-(1-36)amide binding, canine renal cortical membranes, 20 C; Ki from IC50.
Description: (§6) Dissociation constants (Kd) were determined by Scatchard analysis of the data obtained from competitive binding experiments using radioligand and increasing concentrations of unlabeled ligand. […] Statistical differences were assessed by paired Student's t test. […] Computer fits of a one- or two-binding site model were compared, indicating the statistically preferred model. Significance was determined using a partial F-test.
(§7) The Kd values were determined by Scatchard analysis, and the Kᵢ values were derived from the IC₅₀ values.
For test [13] the target is unchanged. Description: competition of 125I-[Nle8,18,Tyr34]hPTH-(1-34)amide binding, canine renal cortical membranes, 20 C; Ki from IC50.
Description: as §6, §7
The target in test [14] is T1, human PTH/PTHrP receptor (PTH1 receptor). Description: competition of 125I-(Tyr36)hPTHrP-(1-36)NH2 binding, human RCM, SaOS-2 membranes, intact SaOS-2 cells.
Description: as §3, §4, §5
For test [15] the target is unchanged. The test is described as follows: cell-based or functional assay. The source holds these as a separate data set.
Test [16] has as its target T2, canine renal PTH/PTHrP receptor. The test is described as follows: competition of 125I-[Nle8,18,Tyr34]hPTH-(1-34)amide binding, canine renal cortical membranes, 20 C. Here is the method: as §1, §2
Test [17] has the same target. The test is described as follows: homologous competition of 125I-[Nle8,18,Tyr34]hPTH-(1-34)amide binding, canine renal cortical membranes, 20 C. Here is the method: as §1, §2
Test [18] shares this target. The test is described as follows: competition of 125I-[Tyr36]PTHrP-(1-36)amide binding, canine renal cortical membranes, 20 C; printed as binding dissociation constant, heterologous competitor (Ki from IC50 by paragraph 214). How it is done: as §1, §2

What is called IC50 is the point on the concentration scale where inhibition reaches its midpoint. In the case of “(Tyr^36) chicken (c) PTHrP-(1-36)amide (from UniProt P17251 38-73) (peptide)”, in [1], the Adenylate cyclase (EC50), SaOS cells (intact, 15 C, 60 min) worked out at 0.8 nM; the Adenylate cyclase (EC50), SaOS membranes was determined as 0.87 nM; the Adenylate cyclase (EC50), kidney membranes (human RCM) turned out to be 0.49 nM. The IC50 in test [2] amounted to 1.1 nM. The molecule further had an IC50 in test [3] of 0.47 nM.
As to SPNTKNHPVRFGSDDEGRYLTQETNK (peptide, UniProt P12272 85-110, looked up, range 49-74; Solid phase synthesis) [PTHrP-(49-74)], in test [4], the binding result is given as “no binding”.
With CQLLHDWGGSIQDL (also called P1-peptide; P1 peptide) [(Cys^5,Trp^11,Gly^13)PTHrP-(5-18)], the binding result in test [4] is on record as “no binding”.

B1: bPTH-(1-84) (ligand, bovine, UniProt P01268 32-115, looked up)
chain: AVSEIQFMHNLGKHLSSMERVEWLRKKLQDVHNFVALGASIAYRDGSSQRPRKKEDNVLVESHQKSLGEADKADVDVLIKAKPQ
notes: range 1-84; From the National Hormone and Pituitary Program (NIDDK); also called bovine PTH-(1-84)
Consider B1, for which the “Adenylate cyclase (EC50), SaOS membranes” value in test [5] was 2.4 nM. In addition, the “Adenylate cyclase (EC50), kidney membranes (human RCM)” value (from here on “Adenylate cyclase … (human RCM)”) in test [5] and in test [6] was 0.59 nM throughout. In test [6], the “Adenylate cyclase (EC50), SaOS cells (intact, 15 C, 60 min)” value (“Adenylate cyclase (EC50), SaOS cells” below) is 7.7 nM. Also, the “fold lower relative affinity than the amino-terminal analogs” value in test [7] was around 10 fold. Moreover, the IC50 worked out at 8 nM in test [2], 17.5 nM in test [8], 5.1 nM in test [9] and 5.1 nM in test [10].
Take SVSEIQL[Nle]HNLGKHLNS[Nle]ERVEWLRKKLQDVHNY [(Nle^8,18, Tyr^34)hPTH-(1-34)]: in test [5], the “Adenylate cyclase (EC50), SaOS membranes” value was determined as 1.9 nM. Further, the “Adenylate cyclase … (human RCM)” value in [5] and in test [6] was 1.1 nM throughout. For the same molecule, the “Adenylate cyclase (EC50), SaOS cells” value in [6] was determined as 2.3 nM. Besides, the IC50 in [2] is 2 nM; in test [8], 2.8 nM; in test [9], 3.6 nM; in test [10], 3.6 nM.

B2: bovine PTH-(1-34) (peptide, UniProt P01268 32-65, looked up)
peptide: AVSEIQFMHNLGKHLSSMERVEWLRKKLQDVHNF
notes: range 1-34; Synthetic, Bachem; also called bPTH-(1-34); bovine (b)PTH-(1-34)
The Ki is the equilibrium dissociation constant of an inhibitor or competing ligand from its target. Turning to B2, the “adenylate cyclase potency against PTHrP-(1-36), standard assay (30 min, 30 C)” value in test [11] amounted to 6 fold. The “adenylate cyclase stimulation against PTHrP-(1-36), binding assay conditions (20 C, 20 min, bacitracin)” value in test [11] was 15 fold. Besides, in [5], the “Adenylate cyclase (EC50), SaOS membranes” value is 0.5 nM. In [6], the “Adenylate cyclase (EC50), SaOS cells” value came out at 1.2 nM. The values for the Ki in test [12] and in test [13] were 10.5 nM and 6.1 nM, respectively.
As for RATSEVSPNSKPSPNTKNHPVRFGSDDEGRYLTQETNK (peptide, UniProt P12272 73-110, looked up, range 73-110; Solid phase synthesis) [hPTHrP-(37-74)], the binding result in test [14] is recorded as “no binding”.

B3: rat PTH-(1-34) (peptide, UniProt P04089 32-65, looked up)
peptide: AVSEIQLMHNLGKHLASVERMQWLRKKLQDVHNF
notes: range 1-34; Synthetic, Bachem; also called rPTH-(1-34); rat (r)PTH-(1-34)
As to B3, in test [15], the “adenylate cyclase potency against hPTHrP-(1-36), human RCM and SaOS-2 membranes” value worked out at 10 fold. Also, in [5], the “Adenylate cyclase (EC50), SaOS membranes” value is 0.09 nM and the “Adenylate cyclase … (human RCM)” value turned out to be 0.05 nM. Also, in test [6], the “Adenylate cyclase (EC50), SaOS cells” value came to 0.9 nM and the “Adenylate cyclase … (human RCM)” value worked out at 0.05 nM. Also, in test [8], the half-inhibitory concentration (IC50) came to 0.9 nM.

B4: Chicken PTH-(1-34)amide (peptide, UniProt P15743 32-65, looked up)
peptide: SVSEMQLMHNLGEHRHTVERQDWLQMKLQDVHSA-NH2
notes: range 1-34; Solid phase synthesis; also called cPTH-(1-34)NH2
With B4, the “Adenylate cyclase (EC50), SaOS membranes” value in test [5] worked out at 16.3 nM. The “Adenylate cyclase … (human RCM)” value in test [5] and in test [6] was 5.4 nM each time. The “Adenylate cyclase (EC50), SaOS cells” value in [6] was found to be 3.9 nM. In addition, the IC50 is 20 nM in test [2], 21.5 nM in test [9] and 21.5 nM in test [10].

B5: [Nle^8,18,Tyr^34]hPTH-(1-34)amide (peptide)
peptide: SVSEIQL[Nle]HNLGKHLNS[Nle]ERVEWLRKKLQDVHNY-NH2
notes: also called NNT-hPTH-(1-34); [Nle^8,18, Tyr^34]hPTH-(1-34)NH2
In the case of B5, the “fold more potent than PTHrP-(1-36) in inhibiting binding” value in test [16] is below 2 fold. For the same molecule, the Ki worked out at 7.5 nM in [17] and 8.5 nM in [18].
